The values that follow come from patent publication US20250082727A1, “CXCL14-BASED COMPOSITIONS AND METHOD FOR ENHANCING CARTILAGE REGENERATION” (FAR EASTERN MEMORIAL HOSPITAL, priority 2023, published 2025).

Experiment [1] has as its system 3D ADSC spheroids. The experiment can be described thus: Immunofluorescence staining of chondrogenic proteins in 3D ADSC spheroids. The class given is cell-based. The conditions noted are these: 3D culture. On the procedure: MSC spheroids were fixed with 4% paraformaldehyde (PFA) (PH 7.2) in PBS for 30 minutes at room temperature. The samples were then washed with PBS to remove the PFA. Next, the spheroids were carefully transferred into ice-cold methanol and incubated at −40° C. for 25 minutes. Following fixation, the spheroids were treated with 1 mg/mL sodium borohydride to clean them, and then washed with PBS. After washing, the spheroids were incubated in a blocking solution containing 10% normal rabbit serum and 1x PBS with 0.1% sodium azide for 6 hours or overnight. The samples were then incubated with primary antibodies against Collagen type II (ab34712, Abcam), SOX9 (ab185966, Abcam), COMP (sc-374660, Santa Cruz), and Aggrecan (MA3-16888, Invitrogen) for 24 hours at 4° C. Subsequently, the samples were incubated with Alexa Fluor 488-, Alexa Fluor 555-, or Alexa Fluor 647-conjugated secondary antibodies for 1 hour at room temperature. Fluorescence images were acquired using a Leica SP8 STED confocal microscope.

The test system of experiment [2] is ADSC pellets. The experiment can be described thus: Alcian blue staining of ADSC pellets. The class given is cell-based. On the procedure: (§1) To obtain a 3D pellet culture, 1×10^5 MSCs were centrifuged at 1200 rpm for 3 min in polypropylene tubes and cultured for 1 day. To induce chondrogenesis, the pelleted cells were cultured in DMEM-HG (Gibco, cat. no. 121000) containing 1% ITS-Premix (Corning, cat. no. 354352), 1% penicillin streptomycin (Gibco, cat. no. 15240), 1 mM sodium pyruvate (Gibco, cat. no. 11360070), 0.35 mM proline (Sigma-Aldrich, cat. no. P5607), 10 ng/mL TGF-β1 (SinoBio, cat. no. 10804-HNAC), 0.17 mM ascorbic acid 2-phosphate (Sigma-Aldrich, cat. no. A8960), and 100 nM dexamethasone (Sigma-Aldrich, cat. no. D4902). After induction, the chondrogenic differentiation results were evaluated on days 1, 7, 14, and 21.
(§2) To further verify the presence of chondrogenic proteins in response to CXCL14-P treatment, ADSCs were analyzed during chondrogenesis using biomarkers such as SOX9, Collagen type II, COMP, and CXCR4. On the third day of differentiation, flow cytometry was used to assess these specific chondrogenic markers. […] ADSCs were monitored until day 7, with cellular uptake of FAM-CXCL14-P observed using fluorescence microscopy, the results were shown in FIG. 7E.

For experiment [3], the system named is human ADSCs. The experiment can be described thus: Flow cytometry of chondrogenic markers in ADSCs. It is filed as cell-based. The note with it: third day of differentiation. The method, then: as §2
The subject of experiment [4] is ADSC. The experiment can be described thus: Real-time PCR of chondrogenic genes in treated ADSCs. It is filed as cell-based, human. On the procedure:
as §1
To identify functional peptide sequences within the CXCL14 protein that enhance chondrogenesis, an CXCL14 peptide (CXCL14-P), which has the amino acid sequence set forth in SEQ ID NO: 2, was used for interacting with CXCR4. […]
MSC-EVs have been reported to have potential for tissue repair; however, naive EVs lack the enhanced capacity to stimulate chondrogenesis and cartilage repair. […] On day 7, ADSCs treated with CXCL14-P-MSC-EVs were analyzed for the expression of SOX9, COL2A1, ACAN, COMP, SOSTDC1, and ITGB1 genes […] using real-time PCR.

The subject of experiment [5] is IPFP-MSC from OA patients. The experiment can be described thus: Alcian blue staining of GAG during chondrogenesis of IPFP-MSC pellets. The note with it: day 3. The class given is cell-based, human. On the procedure: The IPFP tissue was washed repeatedly with Dulbecco's phosphate-buffered saline (Gibco, cat. no. 21600) containing 5% penicillin-streptomycin and amphotericin B solution (Gibco, cat. no. 15240). The tissue was minced and subjected to enzymatic digestion with 0.1% type I collagenase (Gibco, cat. no. 17100017) diluted in minimum essential medium α (α-MEM, Gibco, cat. no. 120000) and 1% bovine serum albumin (Sigma, cat. no. A7906) for 18 h at 37° C. After digestion, an equal amount of culture medium containing 10% fetal bovine serum was added to stop collagenase activity. The cell solution was sieved through a 100-μm mesh and centrifuged at 500 g for 5 min. The cell pellets were resuspended in culture medium (supplemented with 10% FBS, 1% penicillin-streptomycin, and amphotericin B) and seeded in a 10-cm culture dish. The medium was changed every 72 h until the cells reached 80%-90% confluence.
To obtain a 3D pellet culture, 1×10^5 MSCs were centrifuged at 1200 rpm for 3 min in polypropylene tubes and cultured for 1 day. […]
CXCL14 was analyzed to determine the stimulation of chondrogenesis and cartilage regeneration. CXCL14 was also analyzed to determine whether CXCL14 can induce chondrogenesis by using IPFP-MSC from OA patients treated with the recombinant protein CXCL14 and investigating the glycosaminoglycan (GAG) content by Alcian blue staining. […]

Experiment [6] has as its system CXCL14, SOX9, COL2A1, and ACAN mRNA expressions. The experiment can be described thus: Real-time PCR of chondrogenic genes under TGF-b stimulation during chondrogenesis. It is filed as cell-based. The note with it: under a low dose of TGF-β stimulation. The method, then:
as §1
To better understand the molecular mechanism relating to the control of chondrogenesis modulated by CXCL14, the chondrogenic gene expressions were investigated during chondrogenesis.

The test system of experiment [7] is SOSTDC1. The experiment can be described thus: qPCR validation of SOSTDC1 after CXCL14 treatment during MSC chondrogenesis. The class given is cell-based, human.
Experiment [8] has as its system ACLT-induced OA. The experiment can be described thus: ACLT-induced knee OA mouse model (Safranin O, collagen II IHC, OARSI score). The class given is in vivo, C57BL/6 mice. The conditions noted are these: for OARSI score: ACLT mice, ACLT group 5.5, sham 0.17. The source says: Surgical ACLT is the most commonly used for generating an animal model of OA. In this study, 8-week-old specific-pathogen-free C57BL/6 mice were subjected to ACLT and medial collateral ligament (MCL) transection for establishing an OA mouse model (n=6). First, the knee joints of the hind limbs were incised along the medial edge of the patellar ligament. After the joint capsule was exposed, the ACL and MCL were transected. […] After deparaffinization, the sections were stained with hematoxylin for 3 min and differentiated in 1% acid alcohol for 15 s, followed by staining in 0.02% aqueous fast green for 3 min and counterstaining with 0.1% Safranin O for 3 min. Finally, the sections were dehydrated in serial dilutions of ethanol, cleared in xylene, mounted onto glass slides by using neutral gum. Each stained area was observed under a light microscope and photographed using a photomicroscope equipped with a CCD video camera.

On to “CXCL14-P: CXCL14 peptide with the amino acid sequence SEQ ID NO: 2, produced through solid-phase peptide synthesis (ITTKSVSRYRGQEH; listed as Homo sapiens)”, for which the “expressions of SOX9, Collagen type II, and Aggrecan (immunofluorescence)” value in experiment [1] is reported as “consistent results”. Besides, in experiment [2] (ADSC pellets during chondrogenesis), the “GAG content (Alcian blue staining)” value was “higher GAG content”. Further, the “GAG deposition (Alcian blue staining)” value in experiment [2] (ADSC pellets with varying ratios, day 7) is recorded as “increased GAG deposition”. For the same molecule, the “chondrogenic potential (SOX9, Collagen type II, COMP, CXCR4 markers)” value in experiment [3] is “enhances the chondrogenic potential”. Besides, the “CXCL14, SOX9, and COL2A1 gene expression” value in experiment [4] (ADSC, real-time PCR on day 7, compared to CXCL14 protein) is on record as “stronger chondrogenic gene expression compared to the protein”. The “SOX9, COL2A1, COMP, and ACAN gene expression” value in experiment [4] (one-day treatment then fresh medium, real-time PCR on day 7) is “significantly induced”.

B1: CXCL14: small cytokine of the CXC chemokine family, Homo sapiens CXCL14, amino acid sequence SEQ ID NO: 1 (protein, listed as Homo sapiens)
chain: MSLLPRRAPPVSMRLLAAALLLLLLALYTARVDGSKCKCSRKGPKIRYSDVKKLEMKPKYPHCEEKMVIITTKSVSRYRGQEHCLHPKLQSTKRFIKWYNAWNEKRRVYEE
For B1, the “GAG deposition (Alcian blue staining)” value in experiment [5] is “increased”. For the same molecule, the “expressions of SOX9, Collagen type II, and Aggrecan (immunofluorescence)” value in experiment [1] is recorded as “elevate”. Further, the “CXCL14, SOX9, COL2A1, and ACAN gene expression” value in experiment [6] is reported as “induce”. The “SOSTDC1 expression (qPCR)” value in experiment [7] (IPFP-MSCs from OA donors) and in experiment [7] (human ADSCs from non-OA donors) was “upregulated expression” in each case. In addition, the results for the OARSI score in experiment [8] (CXCL14 10 ng) and in experiment [8] (CXCL14 20 ng) were 2.7 and 1, respectively. The “cartilage repair, staining GAG content and type II collagen” value in experiment [8] (ACLT-induced OA model) is “dose-dependent stimulated cartilage repair”.
